# Laboratory results: patent US20100068806A1, “NOVEL METHODS AND REAGENTS DIRECTED TO PRODUCTION OF CELLS” (SUOMEN PUNAINEN RISTI, VERIPALVELU, priority 2007, published 2010)
# Entries after “also recorded” stand apart in the source; their conditions may differ.
# B1: PNA: peanut lectin, Gal/GalNAc structures (protein, UniProt P02872 24-273, looked up)
# Galactose-binding lectin: AETVSFNFNSFSEGNPAINFQGDVTVLSNGNIQLTNLNKVNSVGRVLYAMPVRIWSSATGNVASFLTSFSFEMKDIKDYDPADGIIFFIAPEDTQIPAGSIGGGTLGVSDTKGAGHFVGVEFDTYSNSEYNDPPTDHVGIDVNSVDSVKTVPWNSVSGAVVKVTVIYDSSTKTLSVAVTNDNGDITTIAQVVDLKAKLPERVKFGFSASGSLGGRQIHLIRSWSFTSTLITTTRRSIDNNEKKIMNMASA
# B2: Galectin-1: bovine Galectin-1, N-acetyllactosamine binding lectin (protein, UniProt P11116 2-135, looked up)
# Galectin-1: ACGLVASNLNLKPGECLRVRGEVAADAKSFLLNLGKDDNNLCLHFNPRFNAHGDVNTIVCNSKDAGAWGAEQRESAFPFQPGSVVEVCISFNQTDLTIKLPDGYEFKFPNRLNLEAINYLSAGGDFKIKCVAFE
# What was measured:
# [1] = test system: hESC lines FES29 and FES30; assay: hESC culture on lectin-coated plates in mEF-conditioned media; assay type: cell-based, human; design: key to Growth: +++: cells attach and can grow; cells attach and can grow but less cells/slower growth than +++; +: only few cells attach, one split; −: no cells after p1, cannot be splitted; #: less cells attach and slower early growth; conditions: for Growth: culture experiment in mEF-conditioned media; for growth of hESC on coated plates: mEF-conditioned media
# Source text: FES 30 hESC line was used. hESCs were transferred from mEF to Matrigel™ and cultured according to the protocol found on the Geron Corporation website at: http://www.geron.com/showpage.asp?code=prodstprot
# All passages were done using collagenase. The passages were also done using PBS without collagenase treatment.
# The cells were transferred to ECA-coated 12-well plates (Corning) and cultured in mEF-conditioned media for 5-11 days, whereafter they were divided 1:2 or 3:4. RNA samples were extracted from a cell sample every second or third passage and analyzed for expression of stem cell and differentiation markers (FIG. 31).
# The ECA (EY Laboratories, USA; L-5901-5) coating was performed as follows for 12 well plates. ECA lectin was stored frozen as stock solution of 1 mg/ml. It was thawed on ice and diluted as 100 μl lectin stock+600 μl PBS, sterile filtered (Millex-GV, SLGV 013 SL, 0.22 μm) in laminar hood. This solution, i.e. 100 μg/700 μl PBS solution was applied to each well and incubated overnight at +4 C. On the following day lectin solution was removed and wells were washed with 3×1 ml of sterile PBS.
# (§1) hESC were cultured at least two passages feeder-free on Matrigel (BD Biosciences, Bedford, Mass., USA) before plating on lectin. Matrigel-culturing was continued side by side lectin-culturing as comparison. Cells were cultured during the whole experiment in standard Knockout™ DMEM media with 20% Knockout™ Serum Replacement and 8 ng/ml of recombinant basicFGF (all from Gibco/Invitrogen, Paisley, UK; Mikkola M. et al. BMC Dev. Biol. 6:40, 2006) conditioned on mouse feeder cells for 24 h. Cells were detached with collagenase IV while splitting.
# (§2) Lectins were diluted in PBS and sterile filtered before applying on Nunclon cell culture plates (Nunc, Roskilde, Denmark). The amount of lectin was 27 μg/cm^2 and plates were incubated over night at +4° C. Before splitting cells on lectin wells were washed three times with PBS.
# [2] = test system: SSEA-4 enriched human embryonic stem cells (hESC); conditions: Venable et al. 2005; cited from earlier work
# hESC [3] = assay: Fluorescein-labelled lectin staining of hESC colonies on mouse feeder layers; assay type: binding, human; design: key to lectin ligand profile, hESC: + present in cell surface; − not present in cell surface; conditions: for inhibition of lectin binding to hESC by carbohydrate: MAA or PSA binding
# Protocol: (§3) Lectin staining. Fluorescein-labeled lectins were from EY Laboratories (USA) and the stainings were performed essentially after manufacturer's instructions. The specificity of the staining was controlled in parallel experiments by inhibiting lectin binding with specific oligo- and monosaccharides.
# (§4) From a practical perspective stem cell research would be best served by the identification of target structures on cell surface. To investigate whether individual glycan structures we had identified would be accessible to reagents targeting them at the cell surface we performed lectin labelling of two candidate structure types. Lectins are proteins that recognize glycans with specificity to certain glycan structures also in hESC (Venable et al., 2005). To study the localization of glycan components in hESC, stem cell colonies grown on mouse feeder cell layers were labeled in vitro by fluorescein-labelled lectins (FIG. 2). […] Such glycans would thus be available for recognition by more specific glycan-recognizing reagents such as antibodies. In contrast, the cell surfaces were not labelled by Pisum sativum agglutinin (PSA) that recognizes α-mannosylated glycans (FIG. 2b).
# The glycome profile data was used to design glycan-specific labeling reagents for hESC. The most interesting glycan types were chosen to study their expression profiles by lectin histochemistry as exemplified in FIG. 5 for the lectins that recognize either α2,3-sialylated (MAA-lectin, FIG. 5A.) binding to the hESC cells or α-mannosylated glycans (PSA-lectin, FIG. 5B.) binding to the surfaces of feeder cells (MEF). The binding of the lectin reagents was inhibited by specific carbohydrate inhibitors, sialylα2-lactose and mannose, respectively (FIG. 5C. and 5D.).
# hESC [4] = assay: Short (5 days) hESC culture on ECA types and conjugates; assay type: cell-based, human; design: key: +++: many cells attached on day 5; ++: scattered cells on day 5; +: few cells left on day 5; −: no attached cells after day 5; conditions: day 5
# [5] = test system: human embryonic stem cell (hESC) lines FES 22 and FES 30; assay: FITC-lectin and antibody labelling of hESC, fluorescence microscopy; assay type: binding
# [6] = test system: cord blood mononuclear cell (CB MNC); assay: FACS analysis of FITC-lectin binding to cord blood mononuclear cells; design: species or system human; conditions: seven CB MNC preparations
# mouse feeder cells (MEF) = assay: Fluorescein-labelled lectin staining of mouse feeder cells in hESC culture; assay type: binding; design: key: + present in cell surface; − not present in cell surface; conditions: MEF cell surface
# Protocol: as §3, §4
# The glycome profile data was used to design glycan-specific labeling reagents for hESC. […]
# [7] = test system: bone marrow derived mesenchymal stem cells (BM MSC); assay: FITC-lectin staining of fixed BM MSC, fluorescence microscopy; assay type: binding, human
# mouse feeder cell (mEF) = assay: FITC-lectin and antibody labelling of mouse feeder cells, fluorescence microscopy; assay type: binding; conditions: fixed cells
# RUNX2 = assay: Quantitative RT-PCR of RUNX2 in MSC grown on lectins; assay type: cell-based, human
# Source text: (§5) Total cellular RNA from the BM derived mesenchymal stem cells grown for five passages on selected lectins was extracted by using RNeasy miniprep-kit (Qiagen, Chatsworth, Calif.) according to the manufacturers's instructions. RNA was then reverse transcribed to cDNA with High Capacity cDNA Reverse Transcription reagents according to manufacturers instructions (Applied Biosystems) and used as a template in TaqMan® PCR reaction. TaqMan® PCR reaction was used to estimate the quantitative levels of stem cell differentiation markers. TaqMan® PCR reaction performed in standard conditions using TaqMan® Universal Gene Expression Master Mix (Applied Biosystems) and Pre-developed Inventored Gene Expression Assays for FABP4 (Hs00609791_m1) and RUNX2 (Hs00231692_m1) (Applied Biosystems).
# (§6) Real time quantitative PCR reactions were performed with the ABI PRISM 7000 Sequence Detector System (Applied Biosystem) in standard conditions. PCR amplifications were performed in a total volume of 50 μl, containing 1 μl cDNA sample. TaqMan® Universal Gene Expression Master Mix (Applied Biosystems) was used in all experiments. Pre-developed Inventored Gene Expression Assays for FABP4 (Hs00609791_m1) and RUNX2 (Hs00231692_m1) (Applied Biosystems) were used to estimate the quantitative levels of stem cell differentiation markers. Pre-developed TaqMan® assay reagents for endogenous control human TATA-box binding gene labeled with VIC reporter dye (Hs 999999_m19) was used for amplification of control gene.
# (§7) PCR was started with 2 min at 50° C. and the initial 10 min denaturing temperature was 94° C., followed by a total of 40 cycles of 15 s of denaturing and 1 min of annealing and elongation at 60° C.
# [8] = test system: Human Bone marrow-derived mesenchymal stem cells (MSC); assay: Flow cytometry of CD105, CD45, CD73, HLA-DR in MSC grown on lectins; assay type: cell-based; conditions: MSC grown on lectin
# Protocol: Briefly, bone marrow obtained during orthopedic surgery was cultured in Minimum Essential Alpha-Medium (α-MEM), supplemented with 20 mM HEPES, 10% FCS, 1× penicillin-streptomycin and 2 mM L-glutamine (all from Gibco). After a cell attachment period of 2 days the cells were washed with Ca2+ and Mg2+ free PBS (Gibco), and subcultured at a density of 2000-3000 cells/cm2 in the same media on 24-well chamber slides coated with lectin molecules. Cells were crown at 37° C. with 5% CO2, fresh media was changed twice a week until near confluence. MSCs were cultured on lectin coated well plates for five passages. MSC passages 5-10 were used in the experiment.
# Proliferating MSCs in passage 5 were grown on different lectins for 5 days. Cells were washed with PBS and harvested into single cell suspensions by Versene solution. Detached cells were centrifuged at 600×g for five minutes at room temperature. Cell pellet was washed twice with 0.3% BSA-PBS, centrifuged at 600×g and resuspended in 0.3% BSA-PBS. Cells were placed in conical tubes in aliquots of 50 000 cells each. Cell aliquots were incubated with antibodies in dilution of 2 μl/10^5 cells for 30 minutes at +4° C. in the dark. After incubation cells were washed with 0.3% BSA-PBS, centrifuged and resuspended in 0.3% BSA-PBS.
# Unlabeled cells and cells grown on plastic were used as controls. Antibody binding was detected by flow cytometry (FACSAria, Becton Dickinson). Data analysis was made with FACSDiva™ Flow Cytometry Software Version 5.02.
# hESC (FES29) = assay: FACS of Tra-1-60 and SSEA-3 in hESC cultured on lectins or Matrigel; assay type: cell-based, human
# Protocol: as §1, §2
# FABP4 = assay: Quantitative RT-PCR of FABP4 in MSC grown on lectins; assay type: cell-based, human
# Source text: as §5, §6, §7
# [9] = MSC grown five passages on lectin
# [10] = start point (UEA-1/DSA/Galectin 1 experiment)
molecule,measurement,setting,value
"Galectin-1 in solution: Galectin-1 added in solution, not immobilized",Growth,[1],−
same,growth of hESC on coated plates,[1],could not support the cell growth
PHA-E: Phaseolus vulgaris lectin recognizing N-glycan core epitope (bisecting GlcNAc),lectin binding to SSEA-4 enriched hESC,[2],partially bind to hESC
same,Growth,[1],+++#
same,growth of hESC on coated plates,[1],weak
PHA-L: Phaseolus vulgaris lectin,lectin binding to SSEA-4 enriched hESC,[2],partially bind to hESC
O=C[C@@H](O)[C@@H](O)[C@H](O)[C@H](O)CO [D-mannose],inhibition of lectin binding to hESC by carbohydrate,hESC [3],inhibited; also recorded: blocks PSA binding
"rGal-1: rGal-1, presumably recombinant galectin-1, coating in short hESC culture",short (5 days) culting,hESC [4],−
CC(=O)N[C@H]1[C@H]([C@H](O)[C@H](O)CO)O[C@@](O[C@H]2[C@@H](O)[C@@H](CO)O[C@@H](O[C@H]3[C@H](O)[C@@H](O)C(O)O[C@@H]3CO)[C@@H]2O)(C(=O)O)C[C@@H]1O (some centres unmarked) [3′-sialyllactose],inhibition of lectin binding to hESC by carbohydrate,hESC [3],blocks MAA binding
same,inhibition of lectin binding to hESC by carbohydrate,hESC [3]; listed as α3′-sialyllactose,inhibited
B1,labelling of hESC,[5]; fixed cells on mouse feeder layer,Abundant labelling
same,"specific binding, hESC versus mEF",[5]; hESC compared with mEF,bound specifically to hESC but not to mEF
same,lectin binding to CB MNC,[6],variable binding between CB samples
same,lectin binding to SSEA-4 enriched hESC,[2],high binding percentage
same,"lectin ligand profile, hESC",hESC [3]; hESC cell surface,+
same,"lectin ligand profile, MEF",mouse feeder cells (MEF),−
same,lectin binding / labelling of BM MSC,"[7]; FITC-labelled lectin, cell surface of cultured BM MSC",less intense labelling
same,effect of sialidase treatment of the cells on lectin binding,[7]; sialidase treatment before lectin binding,also increased by sialidase treatment
same,labelling of mEF,mouse feeder cell (mEF),absence of specific binding
B2,passages hESC cultured on lectin,[1]; FES29,7 passages
same,Growth,[1],+++
same,growth of hESC on coated plates,[1],also effective
same,RUNX- Endogenous control gene avarage Δct,RUNX2; [9],2.76
same,Expression relative to plastic 2e − ΔΔCt,RUNX2; RUNX,0.31
same,ΔCt − Δctplastic relative ΔΔCt,"RUNX2; RUNX, relative to plastic",1.87
same,CD 45,[8],neg
same,CD73,[8],pos
same,CD105,[8],pos
same,HLA-DR,[8],23.8%
same,expression of SSEA-3,"hESC (FES29); FES29, after 7 passages",32.3%
same,expression of Tra-1-60,"hESC (FES29); FES29, after 7 passages",21.6%
same,SSEA-3,hESC (FES29); p7,32.3
same,Tra-1-60,hESC (FES29); p7,21.6
same,SSEA-3,hESC (FES29); [10],89.2
same,Tra-1-60,hESC (FES29); [10],69.6
same,Expression relative to plastic 2e − ΔΔCt,FABP4; FABP,12.85
same,ΔCt − Δctplastic relative ΔΔCt,"FABP4; FABP, relative to plastic",−1.86
same,FABP - Endogenous control gene avarage Δct,FABP4; [9],5.24
